The source of these data is US6437095 (Hoffmann-La Roche, dated 2002).

Where no end group is shown, it is not given here.

In the assay the target is T1, polyionic peptide AlaCysLysLysLysLysLysLysLysLys (ACK8) (also: also used as mixed disulfide with glutathione on Cys (ACK8-SG)).
T1 construct: Synthetic peptide (Fmoc); also called ACK8-SG (mixed disulfide with glutathione)
T1 peptide: ACKKKKKKKK
Briefly: 20 µM ACE8 with the mixed disulfide ACK8-SG, 0 to 1 M NaCl, cation exchange chromatography.

Regarding ACEEEEEEEE (Synthetic peptide (Fmoc)) [polyionic peptide AlaCysGluGluGluGluGluGluGluGlu (ACE8)], the binding result is on record as “binds”.
